The target in experiment [1] is T1, KalbTG (Kutzneria viridogrisea, UniProt W5WHY8).
T1 construct: gene KALB_7456; E. coli; predicted signal peptide removed; N-terminal 2x SlyD (E. coli) chaperone tag with factor Xa site (cut off for some applications), N-terminal MGGGSTTAQAAAVAAPTPR, C-terminal GGGS-His8
Kind of experiment: peptide array transamidation, Cy5-streptavidin fluorescence. The experiment is classed as biochemical. As to conditions: 50 uM amine donor with 5-mer Gln peptides; 100 mM Tris-HCl, pH 8, 1 mM DTT, 37 °C, 45 min.

The target in experiment [2] is microbial transglutaminase from Kutzneria albida (KalbTG) (Kutzneria albida DSM 43870).
The target of experiment [3] is microbial transglutaminase (MTG) from Streptomyces mobaraensis, engineered enzyme from Zedira (Streptomyces mobaraensis) (UniProt P81453).

Data on three molecules can be found in PMC5612097, “Discovery of a microbial transglutaminase enabling highly site-specific labeling of proteins” (The Journal of Biological Chemistry, 2017).

Where no end group is shown, it is not given here. The star is where a group is joined. Cbz = O=C(OCc1ccccc1)*

T1 sequence (W5WHY8 entry or part of it): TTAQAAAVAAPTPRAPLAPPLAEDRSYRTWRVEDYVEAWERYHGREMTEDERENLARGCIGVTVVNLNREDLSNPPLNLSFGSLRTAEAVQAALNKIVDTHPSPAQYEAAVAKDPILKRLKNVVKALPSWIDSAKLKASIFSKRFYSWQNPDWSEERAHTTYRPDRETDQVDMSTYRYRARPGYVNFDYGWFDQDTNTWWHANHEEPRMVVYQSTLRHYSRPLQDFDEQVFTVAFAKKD

On to `NCCCCCNC(=O)CCCC[C@@H]1SC[C@@H]2NC(=O)N[C@@H]21` [N-(biotinyl)cadaverine], for which the “peptide array transamidation, Cy5-streptavidin fluorescence” value in experiment [1] is given as “N-(biotinyl)cadaverine (Zedira) was used as a substitute for a Lys substrate to biotinylate Gln peptides”.

B1: Z-… (peptide)
peptide: Cbz-GGGYRYRQGGGG
Take B1: the Km in the GLDH-coupled transglutaminase activity assay (37 °C, peptide 0-1 mM, 1 mM cadaverine as amine donor) amounted to 2150 µM in experiment [2] and 644 µM in experiment [3].

B2: Z-… (peptide)
peptide: Cbz-GGGDYALQGGGG
With B2, in experiment [3], the Km in the GLDH-coupled transglutaminase activity assay (37 °C, peptide 0-1 mM, 1 mM cadaverine as amine donor) amounted to 847 µM.
